Source: publication PMC3488048 (The Journal of Biological Chemistry, 2012)
Where no end group is shown, it is not given here.

Molecular target: Kindlin-3 (full-length, C-terminal His6 tag removed, for NMR) (mouse, UniProt Q8K1B8 1-665)
Assay: NMR titration

Kindlin-3 (full-length, C-terminal His6 tag removed, for NMR), sequence (Q8K1B8 whole entry): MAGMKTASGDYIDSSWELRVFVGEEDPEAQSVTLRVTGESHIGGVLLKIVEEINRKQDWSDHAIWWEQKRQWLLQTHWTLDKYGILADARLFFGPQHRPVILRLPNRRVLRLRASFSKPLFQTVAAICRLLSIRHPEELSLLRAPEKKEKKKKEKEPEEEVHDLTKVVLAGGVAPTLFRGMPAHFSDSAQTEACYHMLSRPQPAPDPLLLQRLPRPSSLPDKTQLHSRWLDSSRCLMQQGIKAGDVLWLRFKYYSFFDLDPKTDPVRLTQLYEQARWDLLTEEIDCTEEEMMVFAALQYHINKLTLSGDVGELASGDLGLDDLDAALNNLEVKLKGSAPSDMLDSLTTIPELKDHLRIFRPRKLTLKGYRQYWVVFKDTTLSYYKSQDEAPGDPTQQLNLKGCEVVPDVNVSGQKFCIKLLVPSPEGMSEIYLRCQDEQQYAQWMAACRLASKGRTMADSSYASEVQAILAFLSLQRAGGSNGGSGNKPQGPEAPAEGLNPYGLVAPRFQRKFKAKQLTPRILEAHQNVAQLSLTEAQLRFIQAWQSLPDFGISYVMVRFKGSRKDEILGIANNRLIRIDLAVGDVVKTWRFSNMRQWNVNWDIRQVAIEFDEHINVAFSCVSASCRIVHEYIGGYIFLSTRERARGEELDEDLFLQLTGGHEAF

Binder	Kd [µM]
KLLMIIHDRREFAKFEKEKMNAKWDTGENPIYKSAVTTVVNPKYEGK (domain or fragment, UniProt P05556-1 752-798, looked up, also: uniformly 15N-labelled) [integrin β1A cytoplasmic tail]	~50
KLLMIIHDRREFAKFEKEKMNAKWDTQENPIYKSPINNFKNPNYGRKAGL (domain or fragment, UniProt P05556-5 752-801, looked up, also: uniformly 15N-labelled) [integrin β1D cytoplasmic tail]	~50
